B1: SC05-159 (scFv)
scFv: QVQLVQSGAEVKKPGATVKISCKVSGYTFTDYYMHWVQQAPGKGLEWMGLVDPEDGETIYAEKFQGRVTITADTSTDTAYMELSSLRSDDTAVYYCARAEVMTTINNWYFDLWGRGTLVTVSSGTGGSGGTGSGTGGSTSYVLTQPPSASGTPGQRVTISCSGSSSNIGSNNVSWYQQLPGTAPKLLIYSNNQRPSGVPDRFSGSKSGTSASLAISGLQSEDEADYYCAAWDDSLNGWVFGGGTKLTVL
notes: single-chain phage antibody: the scFv stood on phage in the ELISA
B2: SC06-077 (scFv)
scFv: QVQLVQSGAEVKKPGSSVKVSCKASGGTFSSYAISWVRQAPGQGLEWMGGIIPIFGTANYAQKFQGRVTITADESTSTAYMELSSLRSEDTAVYYCAREGGVGPAFDIWGQGTMVTVSSGTGGSGGTGSGTGGSTDIQMTQSPDSLAVSLGERATINCKSSQSVLHNSNNKNYLAWYQQKPGQPPKLLIYWASTRESGVPDRFSGSGSGTDFTLTISSLQAEDVAVYYCQQYYGSPYTFGQGTKLEIK
notes: as for B1
B3: SC06-198 (scFv)
scFv: QLQLQESGPGLVKPSETLSLTCAVSGYSITSGYYWGWVRQPPGKGLEWIGSIYHTGSTYYNPSLKSRVTISVDTSKNQFSLKLNSLTAADTAVYFCASQSPAFDFWGQGTMVTVSSGTGGSGGTGSGTGGSTQSVLTQPPSVSGAPGQRVTISCTGSSSNIGTGYDVHWYQQLPGTAPKLLIYGNNNRPSGVPDRFSGSKSGTSASLAITGLQAEDEADYYCATWDDSLNGWVFGGGTKLTVP
notes: as for B1
B4: SC06-241 (scFv)
scFv: EVQLVESGGGLVQPGRSLRLSCAASGFTFRSYAMYWVRQAPGKGLEWLALISHDASKMFYADSVKGRFTISRDNSKNTLSLQMNSLTIEDTAVYYCVRERTGYYGAYWGQGTLVTVSSGTGGSGGTGSGTGGSTDIQMTQSPSSLSASVGDRVTLTCRASQGIGTWLAWYQQKPGKAPKLLIYSASSLQSGVPSRFSGSGSGTDFTLSISNLQPEDFATYYCQQANSFPITFGQGTRLEIK
notes: as for B1
B5: SC06-389 (scFv)
scFv: QVQLVQSGAEVKKPGESLKISCKGSGYSFSTYWIGWVRQMPGKGLEWMGIIYPGDSDTRYSPSFQGQVTISADKSISTAHLQWSSLKASDTAMYYCARPGPRGYNHGFDYWGQGTLVTVSSGTGGSGGTGSGTGGSTSSELTQDPAESVALGQTVKITCQGDSLRRYYASWYQQKPGQAPVLVIYGKNNRPSGIPDRFSGSRSGNTASLTITGAQAEDEAVYYCNSRDSSGNSVVFGGGTKLTVL
notes: as for B1
B6: SC06-079 (scFv)
scFv: EVQLVESGGGLVQPGGSLRLSCAASGFTFSSYAMSWVRQAPGKGLEWVSAISGTGGSAYYADSVKGRFTISRDNSKNTVYLQMNSLRAEDTAVYYCAKGHSSGTNWGQGTLVTVSSGTGGSGGTGSGTGGSTSYVLTQPPSASGTPGQRVTISCSGSSSNIGSNFVYWYQQLPGTAPKLLIYRNNQRPSGVPDRFSGSKSGTSASLAISGLRSEDEADYYCAAWDDSLSGVLFGGGTQLTVL
notes: as for B1
B7: SC06-092 (scFv)
scFv: EVQLVESGGGLVQPGRSLRLSCTGSGFTFGDYAMSWFRQAPGKGLEWVGFIRNKAYGGTAEYAASVKDRFIISRDDSKSIAYLQMNSLKTEDTAVYYCVRREYDTGWLDYWGQGTLVTVSSGTGGSGGTGSGTGGSTQSALTQPPSASGSPGQSVTISCTGTSSDVGGYNYVSWYQRHPGKAPKLMIYDVTDRPSGVSNRFSGSKSGNTASLTISGLQAEDEADYYCSSYTSSSTSAVFGGGTKLTVL
notes: as for B1
B8: SC06-078 (scFv)
scFv: EVQLVESGAEVKKPGSSVKVSCKASGGTFSSYAISWVRQAPGQGLEWMGGIIPIFGTANYAQKFQGKVTITADESTSTAYMELSSLRSEDTAVYYCARLSPRYYGMDVWGQGTTVTVSSGTGGSGGTGSGTGGSTQSALTQPRSVSGSPGQSVTISCTGTSSDVGGYNYVSWYQQHPGKAPKLMIYGGSERPSGVSNRFSGSKSGNTASLTISGVQAEDEADYYCSSYTSSGTLLFGGGTQLTVL
notes: as for B1
B9: SC06-409 (scFv)
scFv: EVQLVQSGAEVKKPGESLKISCKGSGYSFTNYWIGWVRQMPGKGLEWMGIIYPGDSDTRYSPSFQGQVTISADKSISTAYLQWSSLKASDTAMYYCARHTQNKNGMNTFDIWGQGTMVTVSSGTGGSGGTGSGTGGSTQSALTQPPSASGSPGQSVTISCTGTSSDIGGYNYVSWYQQHPGKAPKLMIYEVSNRPPGVSNRFSGSKSGNTASLTISGLQAEDEADYYCSSYSTTTTRVIFGGGTKLTVL
notes: as for B1
B10: SC06-388 (scFv)
scFv: EVQLVETGAEVKKPGESLRISCKGSGYSFTSYWIAWVRQMPGKGLEWMGVIYPGDSDARYSPSFQGQVTMSVDKSISTAYLQWSSLKASDTAMYYCAKLRSKNTGLDYWGQGTLVTVSSGTGGSGGTGSGTGGSTQSALTQPPSASGSPGQSVTISCTGTSSDVGGYNFVSWYQQHPGKAPKLMIYEVSNRPSGVPDRFSGSKSGNTASLTVSGLQAEDEADYYCSSYAGNNNLAFGGGTQLTVL
notes: as for B1
B11: SC06-071 (scFv)
scFv: EVQLVESGGGVVQPGRSLRLSCAASGFTFSSYGMHWVRQAPGKGLEWVAMIWSDGSNKYYADSVKGRFTISRDNSKNTLYLQMNSLRVEDTAVYYCASNYGSGSYWGGFDYWGQGTLVTVSSGTGGSGGTGSGTGGSTQSALTQPASVSGSPGQSITISCTGTSSDVGGYNLVSWYQQHPGKAPKLMIYEGSKRPSGVSNRFFGSKSGDTASLTISGLQAEDEADYYCSSYTTSSTHVFGTGTKVTVL
notes: as for B1
B12: SC06-246 (scFv)
scFv: EVQLVESGGGLIQPGGSLRLSCAASGFTVSSDFMTWVRQAPGRGLEWVSLIYSGGKTNYADSVKGRFTISRDNSRNTLYLQMNSLRAEDTAVYYCARSVCSTISCSKLDDWGQGTLVTVSSGTGGSGGTGSGTGGSTQAVLTQPSSVSVAPGQTARITCGGNNIGRKSVHWYQQKPGLAPVLVVNDNSDRPSGIPARFSGSNSGNTATLTISRVEAGDEADYYCHVWGSSRDHYVFGTGTKVTVL
notes: as for B1
B13: SC06-087 (scFv)
scFv: EVQLVESGGGLVKPGGSLRLSCAASGFTFSSNSMNWVRQAPGKGLEWVSFISSSSTYIYYADSVKGRFTISRDNAKNSLYLQMNSLRAEDTAVYYCARESAAGISYDAFDIWGQGTMVTVSSGTGGSGGTGSGTGGSTQSALTQPASVSGSPGQSITISCTGTSSDVGGYKYVSWYQQHPGKAPKLMIYEVSNRPSGVSNRFSGSKSGSTASLTISGLQAEDEADYYCSSYTSSSTLGVFGTGTKVTVL
notes: as for B1
B14: SC06-415 (scFv)
scFv: EVQLVESGGGLVQPGRSLRLSCAASGFTFDDYAMHWVRQAPGKGLEWVSGISWNSGSIGYADSVKGRFTISRDNAKNSLYLQMNSLRAEDSAVYYCARGGQRFDFWGQGTLVTVSSGTGGSGGTGSGTGGSTQSALTQPPSASGSPGQSVTISCTGTSSDVGGYNYVSWYQQLPGKAPKLLIYDVNNRPSGVSNRFSGSKSGNTASLTISGLQAEDEAEYYCGSSVGSRLRIFGGGTKLTVL
notes: as for B1
B15: SC06-191 (scFv)
scFv: EVQLVESGGGVVQPGRSLRLSCVASEFTFSNYGMHWVRQAPGKGLEWVAVIWYDGSNEDYADSVKGRFTISRDNSKNTVYLHMNSLRAEDTAVYFCTRGQYSSTWFLDYWGQGTLVTVSSGTGGSGGTGSGTGGSTDIQLTQSPSTLSASVGDRVTITCRASQSISSWLAWYQQKPGKAPKLLIYKASSLETGVPSRFSGSGSGTDFTLTISSLQPEDFATYYCQQANSFPLTFGGGTKVDIK
notes: as for B1
B16: SC06-242 (scFv)
scFv: EVQLVESGPGLVKPSETLSLTCTVSGGSISSYYWSWIRQPPGKGLEWIGYIYYTGTTNYNPSLNSRVTISADTSKNQFSLKLSSVTAADTAVYYCARGGQTAGVWGKGTTVTVSSGTGGSGGTGSGTGGSTQSVLTQPPSVSVAPGQTARITCGGYNIGRKSVHWYQQKPGLAPVLVVYDNSDRPSGIPARFSGSNSGNTATLTISGTQAMDEADYYCQAWDRGTAVFGTGTKVTVL
notes: as for B1
B17: SC06-402 (scFv)
scFv: QVQLVQSGAEVKKPGESLKISCKGSGYSFTSYWIGWVRQMPGKGLEWMGIIYPGDSDTRYSPSFQGQVTISADKSISTAYLQWSSLKASDTAMYYCARWGGVCSSTSCPNRDAFDIWGQGTMVTVSSGTGGSGGTGSGTGGSTQSALTQPRSVSGSPGQSVTISCTGTSSDVGGYNYVSWYQQHPGKAPKLMIYDVSNRPSGVSNRFSGSKSGNTASLTISGLQAEDEAEFHCSSYRSSGASPVVFGGGTKLTVL
notes: as for B1
B18: SC06-252 (scFv)
scFv: EVQLVETGGGLVQPGGSLRLSCAASGLTFSSYAMSWVRQAPGKGLEWVSALSGSTTFYADSVKGRFTISRDNAKNTLYLQMNSLRAEDTAVYYCARGNYYGMDVWGQGTTVTVSSGTGGSGGTGSGTGGSTSYVLTQPPSASGTPGQRVTISCSGSSSNIGKFYVYWYQQFPGAAPKLLIYSNNQRPSGVPDRFSGSKSGTSASLAISGLQSEDEADYYCAAWDGSLNGYVFGTGTKVTVL
notes: as for B1
B19: SC06-089 (scFv)
scFv: EVQLVETGGGLVQPGGSLRLSCAASGFTFSSYSMNWVRQAPGKGLEWVSFISSSSSTIYYADSVKGRFTIARDNAKNSLYLQMNSLRDEDTAVYYCARPVGTGISLFHAFDIWGQGTMVTVSSGTGGSGGTGSGTGGSTQSVLTQPPSVSVAPGQTARITCGGNNIGSKYVHWYQQKPGQAPVLVVYDDSDRPSGIPERFSGSNSGNTATLTISRVEAGDEADFYCQVWDGSSDPVVFGGGTKLTVL
notes: as for B1
B20: SC05-157 (scFv)
scFv: EVQLVESGAEVKKPGESLKISCKGSGYSFTNYWIGWVRQMPGKGLEWMGIVYPGDSDTRYSPSFQGQVTISADKSISTAYLQWSSLKASDTAVYYCARRMAVAGSDAFDIWGQGTMVTVSSGTGGSGGTGSGTGGSTQAVLTQPSSASGTPGQTVTISCSGSTSNIGSHNVNWYQHLPGTAPKLLIYINNKRPSGVPDRFSGSKSGSSASLAISGLQSEDEADYYCAAWDDSLRRPVFGGGTQLTVL
notes: as for B1

Biological target: T1, 송아지 혈청 알부민(BSA) (bovine (printed: 송아지 혈청 알부민), UniProt P02769 25-607)
T1 construct: also called bovine serum albumin
Assay: phage ELISA, 1% BSA coated, anti-M13-peroxidase, absorbance 492 nm

T1 sequence (P02769 25-607 limits assumed): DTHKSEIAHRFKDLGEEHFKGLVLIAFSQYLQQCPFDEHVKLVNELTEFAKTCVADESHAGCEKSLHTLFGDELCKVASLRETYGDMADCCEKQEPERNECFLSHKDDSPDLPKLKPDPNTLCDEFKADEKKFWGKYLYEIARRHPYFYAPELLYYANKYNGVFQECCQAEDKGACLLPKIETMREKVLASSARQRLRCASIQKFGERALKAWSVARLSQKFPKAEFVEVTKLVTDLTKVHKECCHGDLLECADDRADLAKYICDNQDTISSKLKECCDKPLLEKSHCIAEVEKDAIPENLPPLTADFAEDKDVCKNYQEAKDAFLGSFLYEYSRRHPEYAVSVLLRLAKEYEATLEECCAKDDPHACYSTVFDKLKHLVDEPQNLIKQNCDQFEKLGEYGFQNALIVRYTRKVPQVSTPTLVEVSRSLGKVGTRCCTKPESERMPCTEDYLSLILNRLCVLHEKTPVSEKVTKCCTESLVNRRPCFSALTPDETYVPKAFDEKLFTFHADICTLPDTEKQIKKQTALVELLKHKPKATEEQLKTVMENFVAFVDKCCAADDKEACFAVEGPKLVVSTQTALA

Binder	binding result
B1	no binding
B2	no binding
B3	no binding
B4	no binding
B5	no binding
B6	no binding
B7	no binding
B8	no binding
B9	no binding
B10	no binding
B11	no binding
B12	no binding
B13	no binding
B14	no binding
B15	no binding
B16	no binding
B17	no binding
B18	no binding
B19	no binding
B20	no binding

Source: patent KR20160003317A (dated 2016)
